Earlier results, collected in paper PMC3089900.

Target: His276 (UniProt position 276, SEELDHALNDM)
Experiment: NMR
Conditions: in the presence of troponin T fragment TnT1

alpha-tropomyosin (striated muscle alpha-Tm) (Oryctolagus cuniculus (inferred; the article's alpha-Tm sequence discussion and preparations are rabbit))
pKa: 7.27−7.98
